The results in this text go back to paper PMC4133399.

Experiment [1] concerns the target GpA G83I TMD (LexA-TMD-MBP chimera). The experiment can be described thus: GALLEX assay (β-gal activity of LexA-TMD-MBP chimera proteins). The note with it: n = 3; strong dimerization results in low β-gal activity; parent: est. 20; read off a plot.
Experiment [2] deals with LexA-TMD-MBP chimera protein with the TLR2 TMD (GALLEX) (UniProt O60603). The description is as above. The note with it: n = 3; strong dimerization results in low β-gal activity; parent: est. 48; read off a plot.
UniProt O60603, sequence (O60603 21-784, change not shown): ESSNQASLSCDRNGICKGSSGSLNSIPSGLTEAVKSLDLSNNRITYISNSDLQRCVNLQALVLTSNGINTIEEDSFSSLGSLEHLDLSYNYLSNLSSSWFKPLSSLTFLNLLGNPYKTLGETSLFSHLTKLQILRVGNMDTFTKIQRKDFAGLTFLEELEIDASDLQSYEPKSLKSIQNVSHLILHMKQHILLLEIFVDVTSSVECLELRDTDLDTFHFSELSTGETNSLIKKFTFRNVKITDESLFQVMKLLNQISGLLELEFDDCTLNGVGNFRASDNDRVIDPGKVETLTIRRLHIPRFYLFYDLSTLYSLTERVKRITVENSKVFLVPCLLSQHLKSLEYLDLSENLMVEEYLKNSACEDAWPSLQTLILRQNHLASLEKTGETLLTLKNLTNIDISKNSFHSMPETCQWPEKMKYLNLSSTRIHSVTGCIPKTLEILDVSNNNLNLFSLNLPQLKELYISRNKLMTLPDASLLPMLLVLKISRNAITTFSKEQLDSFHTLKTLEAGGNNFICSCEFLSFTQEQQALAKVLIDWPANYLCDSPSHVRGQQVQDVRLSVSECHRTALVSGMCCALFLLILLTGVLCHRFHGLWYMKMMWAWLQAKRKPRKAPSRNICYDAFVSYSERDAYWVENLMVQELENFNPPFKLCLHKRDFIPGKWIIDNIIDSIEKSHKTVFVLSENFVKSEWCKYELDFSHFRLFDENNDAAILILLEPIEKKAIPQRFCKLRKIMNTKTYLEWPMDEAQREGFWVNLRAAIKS
Experiment [3] concerns the target NBD-labelled gp41 TMD peptide (HIV-1). The experiment can be described thus: FRET or BRET; NBD-labelled gp41 TMD or mutant peptide (donor, 0.1 µM) in PC∶Chol 9∶1 LUVs, titrated with Rho-labelled TLR2 TMD peptide at 1∶40, 1∶20, 1∶10 and 1∶1 acceptor∶donor; decrease of donor emission at 530 nm. In general terms: In BRET a luciferase serves as donor, and the signal depends on an acceptor being close.

Experiment [4] concerns the target NBD-labelled gp41 mutant peptide (HIV-1). Described as above.
Experiment [5] has as its target TLR2 protein of RAW264.7 murine macrophages (mouse (endogenous in RAW264.7)) (UniProt Q9QUN7).
UniProt Q9QUN7, sequence (Q9QUN7 25-784): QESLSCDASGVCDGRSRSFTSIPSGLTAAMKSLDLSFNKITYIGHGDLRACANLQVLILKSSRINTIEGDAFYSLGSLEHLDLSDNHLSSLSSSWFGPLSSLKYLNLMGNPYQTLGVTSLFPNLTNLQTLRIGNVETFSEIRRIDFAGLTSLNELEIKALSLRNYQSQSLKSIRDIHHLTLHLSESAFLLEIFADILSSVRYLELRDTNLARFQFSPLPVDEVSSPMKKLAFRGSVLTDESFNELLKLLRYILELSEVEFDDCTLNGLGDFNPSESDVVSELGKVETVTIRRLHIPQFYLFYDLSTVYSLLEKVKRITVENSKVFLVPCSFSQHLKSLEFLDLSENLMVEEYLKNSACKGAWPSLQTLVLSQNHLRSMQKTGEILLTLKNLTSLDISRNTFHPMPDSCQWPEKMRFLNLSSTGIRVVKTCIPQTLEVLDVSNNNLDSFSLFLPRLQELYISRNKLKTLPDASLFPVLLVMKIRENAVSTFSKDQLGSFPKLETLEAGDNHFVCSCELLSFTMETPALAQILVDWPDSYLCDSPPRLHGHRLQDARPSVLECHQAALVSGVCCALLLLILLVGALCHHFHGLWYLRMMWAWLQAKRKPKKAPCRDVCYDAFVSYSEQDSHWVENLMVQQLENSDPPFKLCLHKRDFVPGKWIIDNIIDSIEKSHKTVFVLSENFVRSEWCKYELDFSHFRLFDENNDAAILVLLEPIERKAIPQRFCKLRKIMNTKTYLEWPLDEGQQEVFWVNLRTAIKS
Experiment [6] has the same target. This is another data set of the same source.

Take “LexA-TMD-MBP chimera protein with the Glycophorin A (GpA) TMD (GALLEX) G83I”: the response in experiment [1] is 100%.
As for “LexA-TMD-MBP chimera protein with the gp41 wild type TMD (GALLEX) (from UniProt P04578) gp41 mutant”, the response in experiment [2] was 68%.
For Rho-labeled TLR2 TMD peptide, in experiment [3], the decrease of the NBD donor emission at 530 nm (FRET) at 1∶1 ratio was over 60%. Moreover, in experiment [4], the decrease of the NBD donor emission at 530 nm (FRET) is under 25%.
With unlabeled WT gp41 TMD peptide, in experiment [5], the MCP1 mRNA expression in LTA-activated RAW264.7 cells (real-time PCR), decrease against non-treated cells stood at 45% and the TNFα mRNA expression in LTA-activated RAW264.7 cells (real-time PCR), decrease against non-treated cells was 72%. In experiment [6], the ERK1,2 phosphorylation in RAW264.7 cells 20 minutes after LTA, cells pre-treated with the peptide for 2 hours (decrease of p-ERK band intensity) was over 50%.
